Test results as given in patent US20110311550A1.

Experiments:
Experiment in all cases: ELISA, lectin-captured E1E2 lysate, Ab 1 ug/ml
[1] = biological target: E1E2 complex (H77) with E1 mutation D346A (HCV genotype 1a, isolate H77) (UniProt P27958)
[2] = biological target: E1E2 complex (H77) with E1 mutation F293A (HCV genotype 1a, isolate H77) (UniProt P27958)
[3] = biological target: E1E2 complex (H77) with E1 mutation G350A (HCV genotype 1a, isolate H77) (UniProt P27958)
[4] = biological target: E1E2 complex (H77) with E1 mutation H222A (HCV genotype 1a, isolate H77) (UniProt P27958)
[5] = biological target: E1E2 complex (H77) with E1 mutation M318A (HCV genotype 1a, isolate H77) (UniProt P27958)
[6] = biological target: E1E2 complex (H77) with E1 mutation N196A/N209A (HCV genotype 1a, isolate H77) (UniProt P27958)
[7] = biological target: E1E2 complex (H77) with E1 mutation P228A (HCV genotype 1a, isolate H77) (UniProt P27958)
[8] = biological target: E1E2 complex (H77) with E1 mutation R339A (HCV genotype 1a, isolate H77) (UniProt P27958)
[9] = biological target: E1E2 complex (H77) with E1 mutation S211A (HCV genotype 1a, isolate H77) (UniProt P27958)
[10] = biological target: E1E2 complex (H77) with E1 mutation S294A (HCV genotype 1a, isolate H77) (UniProt P27958)
[11] = biological target: E1E2 complex (H77) with E1 mutation T204A (HCV genotype 1a, isolate H77) (UniProt P27958)
[12] = biological target: E1E2 complex (H77) with E1 mutation W239A (HCV genotype 1a, isolate H77) (UniProt P27958)
[13] = biological target: E1E2 complex (H77) with E1 mutation W320A (HCV genotype 1a, isolate H77) (UniProt P27958)
[14] = biological target: E1E2 complex (H77) with E1 mutation W326A (HCV genotype 1a, isolate H77) (UniProt P27958)
[15] = biological target: E1E2 complex (H77) with E2 mutation A642G (HCV genotype 1a, isolate H77) (UniProt P27958)
[16] = biological target: E1E2 complex (H77) with E2 mutation A643G (HCV genotype 1a, isolate H77) (UniProt P27958)
[17] = biological target: E1E2 complex (H77) with E2 mutation H617A (HCV genotype 1a, isolate H77) (UniProt P27958)
[18] = biological target: E1E2 complex (H77) with E2 mutation L427A (HCV genotype 1a, isolate H77) (UniProt P27958)
[19] = biological target: E1E2 complex (H77) with E2 mutation N428A (HCV genotype 1a, isolate H77) (UniProt P27958)

Substance: mouse anti-E1 MAb A4 (antibody)
- Binding relative to wt (%) [1]: 87%
- Binding relative to wt (%) [2]: 87%
- Binding relative to wt (%) [3]: 79%
- Binding relative to wt (%) [4]: 132%
- Binding relative to wt (%) [5]: 97%
- Binding relative to wt (%) [6]: 51%
- Binding relative to wt (%) [7]: 171%
- Binding relative to wt (%) [8]: 87%
- Binding relative to wt (%) [9]: 106%
- Binding relative to wt (%) [10]: 99%
- Binding relative to wt (%) [11]: 102%
- Binding relative to wt (%) [12]: 103%
- Binding relative to wt (%) [13]: 105%
- Binding relative to wt (%) [14]: 72%
- Binding relative to wt (%) [15]: 137%
- Binding relative to wt (%) [16]: 131%
- Binding relative to wt (%) [17]: 140%
- Binding relative to wt (%) [18]: 102%
- Binding relative to wt (%) [19]: 127%
